{"source": "paper PMC2944812", "target": "Human C1q (human) (UniProt P02745)", "sequence (P02745 23-245, chain 1 of 3)": "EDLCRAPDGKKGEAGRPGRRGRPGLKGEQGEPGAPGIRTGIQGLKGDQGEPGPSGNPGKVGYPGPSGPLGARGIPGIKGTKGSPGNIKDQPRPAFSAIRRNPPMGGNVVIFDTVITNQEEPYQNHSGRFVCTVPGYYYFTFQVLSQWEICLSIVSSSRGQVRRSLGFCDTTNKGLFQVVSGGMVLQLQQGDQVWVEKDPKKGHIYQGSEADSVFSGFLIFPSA", "sequence (P02746 28-253, chain 2 of 3, further chain)": "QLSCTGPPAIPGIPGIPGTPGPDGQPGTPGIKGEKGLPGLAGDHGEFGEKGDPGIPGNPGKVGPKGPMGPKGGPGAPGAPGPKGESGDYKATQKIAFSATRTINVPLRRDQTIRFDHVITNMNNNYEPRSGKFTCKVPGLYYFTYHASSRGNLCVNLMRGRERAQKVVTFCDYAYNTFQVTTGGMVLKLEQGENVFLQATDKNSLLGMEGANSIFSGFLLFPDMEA", "sequence (P02747 29-245, chain 3 of 3, further chain)": "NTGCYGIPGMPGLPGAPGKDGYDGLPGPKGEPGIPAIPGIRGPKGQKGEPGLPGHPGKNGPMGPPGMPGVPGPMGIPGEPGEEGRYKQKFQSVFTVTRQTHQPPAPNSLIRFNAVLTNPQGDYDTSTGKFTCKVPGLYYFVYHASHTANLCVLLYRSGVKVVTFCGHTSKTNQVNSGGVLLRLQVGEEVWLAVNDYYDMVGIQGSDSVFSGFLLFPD", "assay": "flow cytometry on cells; Washed TRAP-activated human platelets incubated with or without purified C1q (10 ug/mL), washed, then HAGG (0-10 ug/mL) for 30 min at RT; HAGG detected with rabbit anti-human IgG (Fab2)-FITC; C1q held on the platelet surface"}
{"substance": "heat-aggregated gamma globulin (natural protein)", "values": [{"measurement": "fold increase of HAGG binding to activated platelets with C1q against without C1q", "result": 2, "unit": "fold"}]}
